T1: TIAM2, Q8IVF5
T1 sequence (Q8IVF5 885-986, limits assumed, looked up): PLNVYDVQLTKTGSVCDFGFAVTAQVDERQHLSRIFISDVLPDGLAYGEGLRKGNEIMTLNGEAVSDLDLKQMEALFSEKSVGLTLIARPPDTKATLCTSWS

T2: FRMPD1, Q5SYB0
T2 sequence (Q5SYB0 52-145, limits assumed, looked up): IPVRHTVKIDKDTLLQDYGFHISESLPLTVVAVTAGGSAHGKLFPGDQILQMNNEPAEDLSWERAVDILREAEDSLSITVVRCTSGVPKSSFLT

T3: CARD11, Q9BXL7
T3 sequence (Q9BXL7 662-765, limits assumed, looked up): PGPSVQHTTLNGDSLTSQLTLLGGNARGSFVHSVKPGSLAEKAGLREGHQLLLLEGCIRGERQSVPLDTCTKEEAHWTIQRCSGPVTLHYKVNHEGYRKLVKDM

T4: NHERF3_3, Q5T2W1
T4 sequence (Q5T2W1 238-333, limits assumed, looked up): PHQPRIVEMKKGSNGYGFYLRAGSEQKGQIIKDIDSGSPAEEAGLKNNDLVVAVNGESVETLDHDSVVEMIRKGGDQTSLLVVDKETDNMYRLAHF

T5: LNX2_2, Q8N448
T5 sequence (Q8N448 334-432, limits assumed, looked up): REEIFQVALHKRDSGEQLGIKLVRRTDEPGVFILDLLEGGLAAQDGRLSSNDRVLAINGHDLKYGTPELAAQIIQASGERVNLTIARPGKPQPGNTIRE

T6: APBA2_2, Q99767
T6 sequence (Q99767 654-744, limits assumed, looked up): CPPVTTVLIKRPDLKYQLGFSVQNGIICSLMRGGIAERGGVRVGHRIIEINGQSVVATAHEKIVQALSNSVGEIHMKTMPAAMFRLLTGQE

T7: SNTG1, Q9NSN8
T7 sequence (Q9NSN8 52-150, limits assumed, looked up): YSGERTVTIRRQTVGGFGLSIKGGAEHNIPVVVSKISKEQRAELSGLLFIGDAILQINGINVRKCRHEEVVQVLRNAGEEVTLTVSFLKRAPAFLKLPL

T8: MPP7, Q5T2T1
T8 sequence (Q5T2T1 134-230, limits assumed, looked up): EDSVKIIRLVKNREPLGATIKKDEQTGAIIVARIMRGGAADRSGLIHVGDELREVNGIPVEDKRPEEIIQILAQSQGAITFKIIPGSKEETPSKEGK

T9: DVL3, Q92997
T9 sequence (Q92997 244-331, limits assumed, looked up): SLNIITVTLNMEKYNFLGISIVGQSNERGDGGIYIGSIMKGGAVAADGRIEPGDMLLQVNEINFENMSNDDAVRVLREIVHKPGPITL

T10: GRIP1_7, Q9Y3R0
T10 sequence (Q9Y3R0 999-1096, limits assumed, looked up): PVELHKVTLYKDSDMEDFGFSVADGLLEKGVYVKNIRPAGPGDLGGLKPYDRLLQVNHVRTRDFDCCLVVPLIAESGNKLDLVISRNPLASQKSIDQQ

T11: PDZD7_3, Q9H5P4
T11 sequence (Q9H5P4 857-944, limits assumed, looked up): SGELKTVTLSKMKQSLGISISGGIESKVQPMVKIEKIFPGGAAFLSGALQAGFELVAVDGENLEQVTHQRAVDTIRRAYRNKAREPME

T12: APBA2_1, Q99767
T12 sequence (Q99767 563-664, limits assumed, looked up): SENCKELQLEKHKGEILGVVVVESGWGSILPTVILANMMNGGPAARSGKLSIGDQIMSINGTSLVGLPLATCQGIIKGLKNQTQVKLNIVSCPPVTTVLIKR

T13: HTRA4, P83105
T13 sequence (P83105 378-476, limits assumed, looked up): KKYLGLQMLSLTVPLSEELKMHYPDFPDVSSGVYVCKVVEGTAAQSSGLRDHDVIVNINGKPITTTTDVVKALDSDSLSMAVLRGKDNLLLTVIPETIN

T14: MPDZ_12, O75970
T14 sequence (O75970 1857-1958, limits assumed, looked up): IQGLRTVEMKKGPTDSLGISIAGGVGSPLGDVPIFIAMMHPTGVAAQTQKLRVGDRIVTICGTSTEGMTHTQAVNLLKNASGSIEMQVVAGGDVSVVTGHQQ

T15: MPP2, Q14168
T15 sequence (Q14168 180-250, limits assumed, looked up): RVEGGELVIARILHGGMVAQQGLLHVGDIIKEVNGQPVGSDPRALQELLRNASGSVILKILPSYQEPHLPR


Target: T1, TIAM2, Q8IVF5
Experiment: holdup assay
Design: key: below the threshold = too weak to quantify, mostly under pKd 3.1 to 4
Details: plain residues with an end cap or a label only (N-terminal biotin on a linker: ado-ado)

Binder	pKd
LPPPESESKV [KCNJ9, Q92806]	4.05

Target: T2, FRMPD1, Q5SYB0
Experiment: holdup assay
Design: key: below the threshold = too weak to quantify, mostly under pKd 3.1 to 4
Details: plain residues with an end cap or a label only (N-terminal biotin on a linker: ado-ado)

Binder	pKd
LPPPESESKV [KCNJ9, Q92806]	below the threshold

Target: T3, CARD11, Q9BXL7
Experiment: holdup assay
Design: key: below the threshold = too weak to quantify, mostly under pKd 3.1 to 4
Details: plain residues with an end cap or a label only (N-terminal biotin on a linker: ado-ado)

Binder	pKd
LPPPESESKV [KCNJ9, Q92806]	3.73

Target: T4, NHERF3_3, Q5T2W1
Experiment: holdup assay
Design: key: below the threshold = too weak to quantify, mostly under pKd 3.1 to 4
Details: plain residues with an end cap or a label only (N-terminal biotin on a linker: ado-ado)

Binder	pKd
LPPPESESKV [KCNJ9, Q92806]	below the threshold

Target: TJP1_2, Q07157
Experiment: holdup assay
Design: key: below the threshold = too weak to quantify, mostly under pKd 3.1 to 4
Details: plain residues with an end cap or a label only (N-terminal biotin on a linker: ado-ado)

TJP1_2, Q07157, sequence (Q07157 181-274): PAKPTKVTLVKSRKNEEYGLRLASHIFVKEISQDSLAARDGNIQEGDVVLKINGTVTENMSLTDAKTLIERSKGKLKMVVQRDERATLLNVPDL

Binder	pKd
LPPPESESKV [KCNJ9, Q92806]	below the threshold

Target: Inadl_3, Q8NI35
Experiment: holdup assay
Design: key: below the threshold = too weak to quantify, mostly under pKd 3.1 to 4
Details: plain residues with an end cap or a label only (N-terminal biotin on a linker: ado-ado)

Inadl_3, Q8NI35, sequence (Q8NI35 359-469): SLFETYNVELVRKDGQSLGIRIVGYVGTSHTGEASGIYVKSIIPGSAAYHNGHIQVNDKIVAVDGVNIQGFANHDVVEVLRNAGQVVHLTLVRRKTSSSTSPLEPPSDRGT

Binder	pKd
LPPPESESKV [KCNJ9, Q92806]	below the threshold

Target: T5, LNX2_2, Q8N448
Experiment: holdup assay
Design: key: below the threshold = too weak to quantify, mostly under pKd 3.1 to 4
Details: plain residues with an end cap or a label only (N-terminal biotin on a linker: ado-ado)

Binder	pKd
LPPPESESKV [KCNJ9, Q92806]	3.52

Target: GRIP2_3, Q9C0E4
Experiment: holdup assay
Design: key: below the threshold = too weak to quantify, mostly under pKd 3.1 to 4
Details: plain residues with an end cap or a label only (N-terminal biotin on a linker: ado-ado)

GRIP2_3, Q9C0E4, sequence (Q9C0E4 238-339): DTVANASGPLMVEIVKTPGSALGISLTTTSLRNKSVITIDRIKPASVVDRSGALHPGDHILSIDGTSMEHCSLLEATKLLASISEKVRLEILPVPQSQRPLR

Binder	pKd
LPPPESESKV [KCNJ9, Q92806]	below the threshold

Target: T6, APBA2_2, Q99767
Experiment: holdup assay
Design: key: below the threshold = too weak to quantify, mostly under pKd 3.1 to 4
Details: plain residues with an end cap or a label only (N-terminal biotin on a linker: ado-ado)

Binder	pKd
LPPPESESKV [KCNJ9, Q92806]	below the threshold

Target: T7, SNTG1, Q9NSN8
Experiment: holdup assay
Design: key: below the threshold = too weak to quantify, mostly under pKd 3.1 to 4
Details: plain residues with an end cap or a label only (N-terminal biotin on a linker: ado-ado)

Binder	pKd
LPPPESESKV [KCNJ9, Q92806]	4.31

Target: T8, MPP7, Q5T2T1
Experiment: holdup assay
Design: key: below the threshold = too weak to quantify, mostly under pKd 3.1 to 4
Details: plain residues with an end cap or a label only (N-terminal biotin on a linker: ado-ado)

Binder	pKd
LPPPESESKV [KCNJ9, Q92806]	below the threshold

Target: T9, DVL3, Q92997
Experiment: holdup assay
Design: key: below the threshold = too weak to quantify, mostly under pKd 3.1 to 4
Details: plain residues with an end cap or a label only (N-terminal biotin on a linker: ado-ado)

Binder	pKd
LPPPESESKV [KCNJ9, Q92806]	below the threshold

Target: LIMK2, P53671
Experiment: holdup assay
Design: key: below the threshold = too weak to quantify, mostly under pKd 3.1 to 4
Details: plain residues with an end cap or a label only (N-terminal biotin on a linker: ado-ado)

LIMK2, P53671, sequence (P53671 143-248): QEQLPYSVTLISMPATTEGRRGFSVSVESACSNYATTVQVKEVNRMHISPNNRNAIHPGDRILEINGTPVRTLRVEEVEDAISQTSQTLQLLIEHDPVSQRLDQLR

Binder	pKd
LPPPESESKV [KCNJ9, Q92806]	below the threshold

Target: ARHGEF12, Q9NZN5-2
Experiment: holdup assay
Design: key: below the threshold = too weak to quantify, mostly under pKd 3.1 to 4
Details: plain residues with an end cap or a label only (N-terminal biotin on a linker: ado-ado)

ARHGEF12, Q9NZN5-2, sequence (Q9NZN5 other isoform, or with tags, fused parts or gaps): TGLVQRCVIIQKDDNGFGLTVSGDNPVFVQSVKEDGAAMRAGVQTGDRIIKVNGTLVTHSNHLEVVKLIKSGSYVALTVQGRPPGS

Binder	pKd
LPPPESESKV [KCNJ9, Q92806]	below the threshold

Target: T10, GRIP1_7, Q9Y3R0
Experiment: holdup assay
Design: key: below the threshold = too weak to quantify, mostly under pKd 3.1 to 4
Details: plain residues with an end cap or a label only (N-terminal biotin on a linker: ado-ado)

Binder	pKd
LPPPESESKV [KCNJ9, Q92806]	below the threshold

Target: AHNAK1, Q09666
Experiment: holdup assay
Design: key: below the threshold = too weak to quantify, mostly under pKd 3.1 to 4
Details: plain residues with an end cap or a label only (N-terminal biotin on a linker: ado-ado)

AHNAK1, Q09666, sequence (Q09666 4-100): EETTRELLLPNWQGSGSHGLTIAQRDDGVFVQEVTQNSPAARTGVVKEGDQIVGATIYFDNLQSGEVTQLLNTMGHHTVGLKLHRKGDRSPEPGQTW

Binder	pKd
LPPPESESKV [KCNJ9, Q92806]	below the threshold

Target: T11, PDZD7_3, Q9H5P4
Experiment: holdup assay
Design: key: below the threshold = too weak to quantify, mostly under pKd 3.1 to 4
Details: plain residues with an end cap or a label only (N-terminal biotin on a linker: ado-ado)

Binder	pKd
LPPPESESKV [KCNJ9, Q92806]	below the threshold

Target: T12, APBA2_1, Q99767
Experiment: holdup assay
Design: key: below the threshold = too weak to quantify, mostly under pKd 3.1 to 4
Details: plain residues with an end cap or a label only (N-terminal biotin on a linker: ado-ado)

Binder	pKd
LPPPESESKV [KCNJ9, Q92806]	below the threshold

Target: SCRIB_1, Q14160
Experiment: holdup assay
Design: key: below the threshold = too weak to quantify, mostly under pKd 3.1 to 4
Details: plain residues with an end cap or a label only (N-terminal biotin on a linker: ado-ado)

SCRIB_1, Q14160, sequence (Q14160 718-814): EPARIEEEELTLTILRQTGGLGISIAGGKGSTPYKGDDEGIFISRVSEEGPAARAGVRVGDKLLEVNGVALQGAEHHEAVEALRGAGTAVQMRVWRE

Binder	pKd
LPPPESESKV [KCNJ9, Q92806]	below the threshold

Target: T13, HTRA4, P83105
Experiment: holdup assay
Design: key: below the threshold = too weak to quantify, mostly under pKd 3.1 to 4
Details: plain residues with an end cap or a label only (N-terminal biotin on a linker: ado-ado)

Binder	pKd
LPPPESESKV [KCNJ9, Q92806]	below the threshold

Target: T14, MPDZ_12, O75970
Experiment: holdup assay
Design: key: below the threshold = too weak to quantify, mostly under pKd 3.1 to 4
Details: plain residues with an end cap or a label only (N-terminal biotin on a linker: ado-ado)

Binder	pKd
LPPPESESKV [KCNJ9, Q92806]	below the threshold

Target: MAST2, Q6P0Q8
Experiment: holdup assay
Design: key: below the threshold = too weak to quantify, mostly under pKd 3.1 to 4
Details: plain residues with an end cap or a label only (N-terminal biotin on a linker: ado-ado)

MAST2, Q6P0Q8, sequence (Q6P0Q8 1099-1202): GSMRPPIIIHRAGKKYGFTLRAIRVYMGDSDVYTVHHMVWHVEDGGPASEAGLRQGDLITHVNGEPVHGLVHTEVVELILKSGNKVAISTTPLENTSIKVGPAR

Binder	pKd
LPPPESESKV [KCNJ9, Q92806]	4.9

Target: T15, MPP2, Q14168
Experiment: holdup assay
Design: key: below the threshold = too weak to quantify, mostly under pKd 3.1 to 4
Details: plain residues with an end cap or a label only (N-terminal biotin on a linker: ado-ado)

Binder	pKd
LPPPESESKV [KCNJ9, Q92806]	below the threshold
